# Assay results reported in paper PMC9078787.
# Biological target: Fcγ receptor IIIa (UniProt P08637)
# UniProt P08637, sequence (P08637 17-208): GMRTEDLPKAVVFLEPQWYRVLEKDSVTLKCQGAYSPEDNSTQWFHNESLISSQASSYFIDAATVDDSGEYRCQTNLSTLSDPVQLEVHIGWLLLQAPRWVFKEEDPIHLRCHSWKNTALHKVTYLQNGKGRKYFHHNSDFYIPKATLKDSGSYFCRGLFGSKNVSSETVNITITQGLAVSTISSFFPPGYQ
substance,measurement,value
Pertuzumab (trademark: Perjeta®) (antibody),"ADCC reporter-gene assay (Jurkat-CD16a-FcεRIγ-NFAT-luc effector cells, SK-BR-3 target cells), relative activity by EC50; batch H0323B07 (%afucose 4.2), the reference standard (%relative activity)",100
same,"ADCC reporter-gene assay, relative activity by EC50; batch H0324B01 (%afucose 4.1) (%relative activity)",96
same,"ADCC reporter-gene assay, relative activity by EC50; batch H0337B01 (%afucose 2.6) (%relative activity)",82
same,"ADCC reporter-gene assay, relative activity by EC50; batch H0340B01 (%afucose 2.4) (%relative activity)",73
same,"ADCC reporter-gene assay, relative activity by EC50; batch H0371B01 (%afucose 2.1) (%relative activity)",91
same,"ADCC reporter-gene assay, relative activity by EC50; batch H0382B04 (%afucose 3.7) (%relative activity)",84
same,"ADCC reporter-gene assay, relative activity by EC50; batch H0383B01 (%afucose 1.8) (%relative activity)",78
same,"ADCC reporter-gene assay, relative activity by EC50; batch H0388B01 (%afucose 2.3) (%relative activity)",81
same,"ADCC reporter-gene assay, relative activity by EC50; batch H0389B01 (%afucose 1.9) (%relative activity)",76
same,"ADCC reporter-gene assay, relative activity by EC50; batch H0391B01 (%afucose 2.1) (%relative activity)",71
same,"ADCC reporter-gene assay, relative activity by EC50; batch H0394B01 (%afucose 2.1) (%relative activity)",73
same,"ADCC reporter-gene assay, relative activity by EC50; batch H0395B02 (%afucose 2.1) (%relative activity)",76
same,"ADCC reporter-gene assay, relative activity by EC50; batch H0396B01 (%afucose 2.1) (%relative activity)",71
same,"ADCC reporter-gene assay, relative maximum response; batch H0323B07 (%afucose 4.2), the reference standard (%relative activity)",100
same,"ADCC reporter-gene assay, relative maximum response; batch H0324B01 (%afucose 4.1) (%relative activity)",103
same,"ADCC reporter-gene assay, relative maximum response; batch H0337B01 (%afucose 2.6) (%relative activity)",86
same,"ADCC reporter-gene assay, relative maximum response; batch H0340B01 (%afucose 2.4) (%relative activity)",88
same,"ADCC reporter-gene assay, relative maximum response; batch H0371B01 (%afucose 2.1) (%relative activity)",72
same,"ADCC reporter-gene assay, relative maximum response; batch H0382B04 (%afucose 3.7) (%relative activity)",96
same,"ADCC reporter-gene assay, relative maximum response; batch H0383B01 (%afucose 1.8) (%relative activity)",70
same,"ADCC reporter-gene assay, relative maximum response; batch H0388B01 (%afucose 2.3) (%relative activity)",74
same,"ADCC reporter-gene assay, relative maximum response; batch H0389B01 (%afucose 1.9) (%relative activity)",70
same,"ADCC reporter-gene assay, relative maximum response; batch H0391B01 (%afucose 2.1) (%relative activity)",78
same,"ADCC reporter-gene assay, relative maximum response; batch H0394B01 (%afucose 2.1) (%relative activity)",74
same,"ADCC reporter-gene assay, relative maximum response; batch H0395B02 (%afucose 2.1) (%relative activity)",75
same,"ADCC reporter-gene assay, relative maximum response; batch H0396B01 (%afucose 2.1) (%relative activity)",80
